In article PMC5573810:

Key:
[1] = target: clade-C (ZM109) V1V2-ferritin nanoparticle (V1V2-FR) (HIV-1 ZM109 (clade C) | not stated) (UniProt Q9ZLI1); assay: ELISA
[2] = target: gp120-ferritin (gp120-FR) nanoparticle; assay: ELISA

Substance: PGT121
- EC50 [1]: 0.87 µg/mL
- EC50 [2]: 0.077 µg/mL
